Consider seven compounds from patent publication US6852842B2, “Methods for functional kidney imaging using small dendrimer contrast agents” (The United States of America as represented by the …, priority 2002, dated 2005).

Data set [1] in a line: Biodistribution and whole body retention of 153Gd-labeled dendrimer-1B4M-Gd conjugates. It is filed as in vivo, nude mice. The note with it: for cleared from the body within 15 min after injection / excretion from the body, rank among conjugates: mouse, in vivo. Here is the method:
Radioactive dendrimer conjugates used for biodistribution studies were prepared as follows. ^153GdCl3 containing no other stable isotope of Gd (III) was purchased from NEN DuPont (Boston, Mass.). Approximately 1,500 μg of each dendrimer (containing 2 μmol of 1B4M) was reacted with 1.11 MBq (30 μCi) of ^153Gd citrate (46 pmol) in 0.3 M citrate buffer at pH 5 for 30 min at room temperature. The preparation was then mixed with a 3-fold molar excess of non-radiolabeled Gd(III) citrate (6 μmol) to conjugate 1B4M to fully saturate the chelating groups with Gd(III). This reaction was incubated for 30 min before the addition of ethylenediaminetetraacetic acid (EDTA) and subsequent column purification. To remove any non-incorporated free metal, 10 μl of 0.5 M EDTA (Sigma, St. Louis, Mo.) was added to minimized formation of Gd(OH)3 precipitate. The product was purified using a PD-10 column (Pharmacia, Uppsala, Sweden), eluting with PBS, (pH 7.4). The radio-purity of each preparation was analyzed by size-exclusion HPLC using a TSK G3000SW column (TosoHaas, Philadelphia, Pa.; 0.1 M PBS; 0.01 M KCl; pH 7.4; 1 ml/min). DTPA (Sigma) was also labeled with ^153Gd in 0.3-M citrate buffer for 30 min at room temperature. The radiolabeling yields of all preparations ranged from 47% to 55%. The radio-purity of all preparations analyzed by size-exclusion HPLC was greater than 97%.
Seven groups of nude mice (n=4 in each group) were injected with 37 kBq (1 μCi)/200 μl of ^153Gd-labeled dendrimer-1B4M-Gd conjugates or ^153Gd-DTPA. The injected samples were added to non-radioactive preparations and the total gadolinium dose was adjusted to 0.02 mmol Gd/kg, 20% of the dose of Gd-[DTPA]-dimeglumine routinely used clinically. The mice were sacrificed 15 min after the injection of the ^153Gd-labeled preparations and biodistribution studies were performed. The data were expressed as the percentage of the injected dose per gram (% ID/g) of tissue. The carcasses of the mice were also counted to calculate the whole body retention (% ID).

The subject of another data set is kidneys of mice. Nature of the data set: Serial dynamic high-resolution MR imaging of the kidneys of mice. It is filed as in vivo. Here is the method:
The mice were anesthetized with 1.15 mg of sodium pentobarbital (Dainabot, Osaka, Japan) and placed in the center of the coils. The fast spoiled gradient echo technique ([…] 71; flip angle 30°; scan time 3'07''; phase encoding steps 512×256; 2 number of excitations; slab thickness 16) with fat-suppression technique and serial 3D data acquisition was used to acquire images every 3.1 min from 0 (immediately after injection) to 12 min after injection of the contrast agents for all mice studied. The coronal images were reconstructed with 0.6-mm thick sections with a 0.3-mm overlap reconstruction. The field of view was 6×3 cm and the size of the matrix was 512×256. The reproducibility of the experiments (two mice in each group) was confirmed by repeating the experiments under the same conditions using a different 1.5-tesla superconductive MRI instrument (Signa Horizon, GE).

For data set [2] the following is noted: in vivo; cited from earlier work.
The nature of data set [3]: Contrast-enhanced dynamic whole body 3D-micro-MRI of mice. In kind it is in vivo, nude mice. The note with it: 0.03 mmol Gd/kg, all times up to 15 min. Here is the method:
To evaluate the whole body pharmacokinetics of the contrast agents, seven groups of 8-week-old female nude mice (n=4 in each group) (NCI, Frederick, Md.) were used to obtain contrast-enhanced dynamic 3D-micro-MR images. […] All images were obtained using the high-resolution wrist coil (GE) with a custom mouse holder using a clinical-grade 1.5-tesla superconductive magnet unit (Signa LX, General Electric Medical System, Milwaukee, Wis.). The mice were anesthetized with 1.15 mg of sodium pentobarbital (Dainabot, Osaka, Japan) and placed in the center of the coils. The fast spoiled gradient echo technique ([…] 19.4/4.2; flip angle 60°; scan time 1'40''; phase encoding steps 256×256; 3 number of excitations; slab thickness 12) with chemical fat-suppression technique and serial 3D data acquisition was used to acquire images every 2 min from 0 (immediately after injection) to 14 min after injection of the contrast agents for all mice studies. The coronal images for dynamic MRI were reconstructed with 2-mm section thickness without gap reconstruction. In addition, slice data was processed into 3D images with the maximum intensity […] (MIP) method (Advantage Windows, General Electric Medical System).

Another data set concerns COX-2 knock-out mice. The data set can be described thus: Contrast-enhanced dynamic 3D-micro-MRI of mice with chronic renal failure. It is filed as in vivo. The note with it: 0.03 mmol Gd/kg i.v., images over 14 min post-injection. Here is the method: To determine if dendrimer-enhanced MR imaging according to the disclosure could detect chronic kidney failure and renal cysts, serial dynamic MR images of normal and 7 month old COX-2 knock-out mice (n=4) were obtained. The later mice have renal cysts and chronic renal failure. The contrast-enhanced dynamic MRI scans were obtained using the fast spoiled gradient echo technique (efgre3d; TR/TE 20.4/7.2; TI49; flip angle 30°; scan time 1′52″; phase encoding steps 512×256; 3 NEX; slab thickness 16) with fat-suppression technique following intravenous injection of 0.03 mmol Gd/kg G4-(1B4M-Gd)64. Serial multi-slice 3D data was obtained over a period of 14 min post-injection of the contrast agents for all mice studied. The width of the cortex and outer stripe of the outer medulla were measured. The combined width of the cortex and outer medulla measured by PAMAM-G4 enhanced MR imaging was much smaller in COX-2 knockout mice (left) than normal mice (right), and correlated with histological thickness (obtained at the time of sacrifice). […] These images show the thicker width of the cortex and outer medulla in the normal mice (FIG. 7a) in comparison to the COX-2 knockout mice (FIG. 7b). […] Thus, contrast-enhanced dynamic 3D-micro-MR imaging can be used to detect chronic renal failure and renal cysts.

For data set [4] the following is noted: mice; cited from earlier work.

For `O=C([O-])CN(CCN(CC(=O)[O-])CC(=O)O)CCN(CC(=O)[O-])CC(=O)O.[153Gd+3]` [Gd-DTPA, reference compound], the “amount of 153Gd-labeled agent remaining in the blood” value in data set [1] (nude mice, 15 min after injection, 0.02 mmol Gd/kg) was 2.7±0.1 % ID/g.
With `CNC[C@H](O)[C@@H](O)[C@H](O)[C@H](O)CO.CNC[C@H](O)[C@@H](O)[C@H](O)[C@H](O)CO.O=C([O-])CN(CCN(CC(=O)[O-])CC(=O)O)CCN(CC(=O)[O-])CC(=O)O.[Gd+3]` [Gd-[DTPA]-dimeglumine, Gd-DTPA-dimeglumine], the “visualization of the proximal straight tubule of the kidney” value in the data set on kidneys of mice (double dose 0.06 mmol Gd/kg) is given as “not visualized”. Further, the “bright white band at the outer stripe of the outer medulla” value with kidneys of mice (high-resolution coronal images, dendrimers 0.03 mmol Gd/kg, Gd-[DTPA]-dimeglumine 0.03 or 0.06 mmol Gd/kg) is reported as “not observed”. The “MRI signal from the renal pelvis region” value in the data set on kidneys of mice (higher doses, e.g. 0.1 mmol Gd/kg) is listed as “loss of signal”.
Regarding DAB-Am16-(Gd-1B4M)16 [DAB-G2], in data set [1], the “cleared from the body within 15 min after injection” value (from here on “cleared from the body within 15 min”) is on record as “Greater than 60 % ID” and the “excretion from the body, rank among conjugates” value (“excretion from the body” below) is listed as “most rapidly excreted”.
For the compound DAB-Am-32-(Gd-1B4M)32 [DAB-G3], in data set [1], the “cleared from the body within 15 min” value is reported as “Greater than 60 % ID” and the “excretion from the body” value was “most rapidly excreted”.
Turning to DAB-Am-64-(Gd-1B4M)64 [DAB-G4], in data set [2], the “accumulation in the kidney vs PAMAM-G4D-(1B4M)64” value was “less” and the “accumulation in the liver vs PAMAM-G4D-(1B4M)64” value is reported as “significantly more”.
Turning to PAMAM-G2D-(Gd-1B4M)16, in data set [1], the “cleared from the body within 15 min” value was “Greater than 60 % ID” and the “excretion from the body” value is recorded as “most rapidly excreted”.
Turning to PAMAM-G4D-(Gd-1B4M)64, the “MRI signal intensity in the left ventricle of the heart” value in data set [3] is reported as “highest”. Moreover, in the data set on COX-2 knock-out mice, the “combined width of the cortex and outer medulla in COX-2 knockout mice vs normal mice by enhanced MR imaging” value is “much smaller”. Also, the “injected dose excreted during the first two days following administration” value in data set [4] is given as 20 % ID.
